Experimental findings from publication PMC4863989 are described below.

The target in experiment [1] is decoration protein (Dec) from bacteriophage L, wild type with N-terminal 6x histidine tag (bacteriophage L). Description: SEC.
Experiment [2] addresses expanded form (EX) of the P22 virus-like particle (bacteriophage P22) (UniProt P26747). Description: SPR. (In SPR one partner is held on a chip, and binding of the other changes the refractive index at the surface.)
The target is the same in experiment [3]. Description: SEC-MALS.
Experiment [4] deals with Dec truncated by the first 20 N-terminal residues (bacteriophage L). Description: SEC. (SEC sorts molecules by how far they enter the pores of the column.)
In experiment [5] the target is Dec truncated by the first 11 N-terminal residues (bacteriophage L). In words: SEC.

Turning to “decoration protein (Dec) from bacteriophage L, wild type with N-terminal 6x histidine tag (natural protein)”, in experiment [1], the stoichiometry N was determined as 3. In experiment [2], this substance displayed a KD2 (weak site, two-site fit) of 1500 nM; a Kd of 24 nM; a half-life of binding at the tight site of over 60 h; a ka1 (tight site, two-site fit) of 11500 M⁻¹ s⁻¹. In addition, in experiment [2], the ka2 (weak site, two-site fit) came to 1980 M⁻¹ s⁻¹; the kd1 (tight site, two-site fit) is 0.000106 s⁻¹; the koff was 0.00033 s⁻¹; the on-rate (kon) was found to be 13800 M⁻¹ s⁻¹. This substance yielded a stoichiometry N (Dec monomers per particle) in experiment [3] of 155.

As for “Dec truncated by the first 20 N-terminal residues (domain or fragment)”, the stoichiometry N in experiment [4] was found to be 3.

As to “Dec fused at its C-terminus to the 21 amino acid CD47 mimic Self-peptide”, in experiment [2], the KD1 (tight site, two-site fit) turned out to be 18.3 nM and the ka1 (tight site, two-site fit) is 11200 M⁻¹ s⁻¹. In experiment [3], this substance showed a stoichiometry N (Dec monomers per particle) of 114.

Regarding “Dec truncated by the first 11 N-terminal residues (domain or fragment)”, in experiment [5], the stoichiometry N worked out at 3. This substance gave a stoichiometry N (Dec monomers per particle) in experiment [3] of 214.

On to “Dec fused at its C-terminus to the soluble region of murine CD40L (from UniProt P27548 112-260)”, for which, in experiment [2], the KD1 (tight site, two-site fit) was found to be 30.8 nM; the ka1 (tight site, two-site fit) came to 6440 M⁻¹ s⁻¹; the kd1 (tight site, two-site fit) amounted to 0.0002 s⁻¹. Also, the stoichiometry N (Dec monomers per particle) in experiment [3] was determined as 51.

A word on the stoichiometry N: it is a count of units in the complex or per binding partner. As a reminder, the Kd is the constant that tells how readily two partners part at equilibrium. Read a low Kd as tighter binding. For orientation: koff means the rate constant with which the complex falls apart. The low end stands for a long-lived complex, the high end for a short-lived complex. As a reminder, the kon is the second-order rate constant of association. Higher therefore signals fast association.
